B1: IMPA1 (parent)
chain: FIGEESVAAGEKSILTDNPTWIID
B2: SMOC2 (parent)
chain: PALETQPQGDEEDIASRYPTLWTE

Variants of: B1
Experiment: protein stability index of a GFP-peptide fusion (GPS, HEK-293T) (PSI 1-6); higher = more stable
Conditions: c terminus: a fixed tail appended
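Also: lentivirally expressed fusions sorted by FACS into six bins by GFP to DsRed ratio, PSI derived from sequencing read proportions per bin multiplied by bin number.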

Protein stability index, by site and new letter:
I22: R 2.09; Q 2.75; E 4.71; N 3.12; C 2.18; S 2.35; H 3.37; Y 2.82; P 3.76; F 2.01; K 2.48; M 2.57; W 2.33; V 2.31; G 3.11; D 4.58; A 1.76; T 1.68; L 2.67
D17: C 1.66; T 1.63; I 2.7; N 1.85; S 1.71; L 2.06; R 1.68; A 1.54; P 2; G 2.08; Y 1.48; E 2.6; F 2.25; M 2.13; V 1.55; H 1.93; K 1.46; W 2.23; Q 1.78
N18: H 2.95; S 3.05; M 2.6; F 2.46; W 2.1; K 2.73; G 2.71; V 2.75; R 2.31; D 3.68; E 3.48; Y 2.62; Q 2.86; P 3.14; I 2.71; A 3.01; L 2.88; C 2.64; T 2.84
I23: R 3.9; L 3.6; C 3.44; V 2.02; M 2.52; S 2.27; W 2.59; D 3.04; N 3.55; E 3.85; Q 3.39; P 3.04; F 2.81; T 1.92; K 3.64; Y 3.45; G 2.99; A 1.84; H 3.75
S13: Y 2; T 1.89; V 2.47; W 2.21; R 2.4
P19: F 2.35; M 2.27; D 3.09; N 2.89; A 2.41; L 1.97; I 2.32; R 1.96; Q 2.92; G 3.13; K 2.2; C 1.76; Y 2.18; W 1.96; V 2.39; H 3.02; E 3.51; S 2.38; T 2.83
T16: C 3.16; A 2.35; F 1.66; Q 2.19; E 2.64; D 3.17; H 2.38; I 1.41; V 2.21; P 1.26; W 1.72; L 1.83; S 1.94; Y 1.64; G 2.11; N 2.89; M 2.38; R 2.37; K 2.73
W21: Q 4.65; D 4.85; E 5.07; P 4.67; K 4.78; F 3.89; A 4.65; G 4.71; I 3.92; Y 3.96; L 4.06; C 4.23; T 4.87; S 4.41; R 4.48; V 4.95; H 4.71; N 4.57; M 4.69
D24: H 2.01; G 2.44; A 1.71; V 1.86; F 2.2; M 2.05; Q 2.15; Y 2.33; N 1.66; P 2.04; S 1.76; I 1.16; C 1.72; E 2.03; K 2.07; T 1.7; L 2.05; R 1.59; W 2.06
T20: S 2.56; C 2.2; N 3.1; G 2.71; F 2.29; L 2.05; R 2.73; I 1.73; D 3.32; Y 1.7; P 2.25; V 2.65; K 3.4; E 3.67; Q 3.09; H 2.67; A 2.43; W 2.03; M 1.82
I14: N 2.23; W 2.22; H 2.44; Y 1.91; A 2.47; E 2.31; Q 2.01; S 2.32; M 2.15; P 2.33; F 1.5; G 2.38; C 1.68; L 1.78; T 2.6; K 2.54; D 2.34; V 2.23; R 1.99
L15: P 2.57; H 2.22; N 2.78; K 2.47; Y 2.05; D 2.83; E 2.61; M 2.15; A 2.33; W 2.48; F 2.06; G 2.77; T 2.33; S 2.33; R 2.17; C 2.3; I 1.98; V 2.52; Q 2.28

Variants of: B2
Experiment: as above
Conditions: c terminus: a fixed tail appended

Protein stability index, by site and new letter:
P1: L 4; Q 3.91; V 4.24; R 4.74; Y 3.1; E 4.63; D 4.56; N 4.08; G 4.33; H 4.32; T 4.58; S 4.78; A 4.26; I 4.09; F 3.44; W 3.84; C 3.24; M 4.25; K 4.04
P7: L 4.6; H 4.29; K 3.38; A 4.07; D 4.67; C 4.46; I 5.37; G 4.5; F 4.08; E 4.67
E4: T 4.46; V 4.11; L 4.22; Q 4.9; Y 2.74; D 4.91; G 4.07; M 3.95; F 3.64; H 3.77; A 4.42; N 4.31; S 4.32; R 3.77; I 3.21; W 3.52; C 3.96; K 4.31
L3: K 4.27; R 4.44; M 4.83; I 5.31; H 4.36; V 4.87; P 5.08; E 5.59; W 4.04; Q 4.97; C 5.01; Y 4.81; S 5.03; G 4.33; N 4.23; F 4.85; D 5.37; T 4.9
Q6: G 5.04; V 3.97; Y 4.66; E 4.39; I 4.77; T 4.7; P 4.55; D 4.92; R 4.34; A 4.44; C 4.7; W 4.15; K 4.26; H 4.73; F 4.25; N 4.3; M 4.13; L 4
A2: H 4.74; V 4.67; S 4.88; K 4.13; E 4.48; R 3.7; L 5.17; G 5.22; C 4.4; I 4.07; N 5.04; T 4.11; F 4.53; M 4.6; Y 4.61; Q 4.54; D 5.13; W 3.88
T5: E 4.99; Y 4.65; D 5.12; H 4.64; Q 4.72; F 4.58; W 4.51; C 4.61; P 4.58; I 4.45; N 4.54; V 3.77; M 5.01; A 4.8; G 4.3; K 3.88; L 4.45; R 4.93; S 4.3
